Test results published in PMC9092428, “Towards identification of protein–protein interaction stabilizers via inhibitory peptide-fragment hybrids using templated fragment ligation” (RSC Chemical Biology, 2022).
Square brackets hold non-standard residues; d marks the D form. Ends that are not written are not given here. Peptide text beside a SMILES is read from it. hydrazide = C-terminal Gly-hydrazide; hydrazone‑SIG17 = not defined here; hydrazone‑FC45 = not defined here; pS = N[C@@H](COP(=O)(O)O)C(=O)O; Ahx = NCCCCCC(=O)O

Legend:
14-3-3η = biological target: T1, 14-3-3η (Homo sapiens, UniProt Q04917); experiment: Fluorescence anisotropy (FA) competition assay against tracer hDMX361–374^pSer367*; type: binding; settings: 50 nM hDMX361–374^pSer367*
T1 construct: full length proteins were concentrated by centrifugation; His tag (pProEx HTb vector) (N); made in house; host or cells: E. coli BL21(DE3)
T1 sequence (Q04917 1-246): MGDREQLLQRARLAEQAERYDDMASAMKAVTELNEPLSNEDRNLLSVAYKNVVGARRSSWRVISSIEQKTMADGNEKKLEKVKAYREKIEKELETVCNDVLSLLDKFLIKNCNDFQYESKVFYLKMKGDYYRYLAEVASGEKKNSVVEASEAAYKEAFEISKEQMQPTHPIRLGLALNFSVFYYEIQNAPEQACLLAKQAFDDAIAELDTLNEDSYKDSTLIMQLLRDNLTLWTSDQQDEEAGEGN
Experimental: A fluorescence anisotropy (FA) competition assay was subsequently carried out using conditions previously found suitable for acylhydrazone formation (pH 6.5, 50 mM NH4OAc, 10 mM aniline) with added DTT (1 mM) to supress disulfide formation. hDMX361–369^pSer367Gly-hydrazide was used to compete with a tracer peptide: hDMX361–374^pSer367* for binding to 14-3-3η (Fig S2, ESI ^†). […] Initial attempts to screen in cocktails, established the aldehydes had no affect on their own (Fig. S3, ESI ^†). We then performed an assay where each aldehyde was screened individually with hDMX361–369^pSer367Gly-hydrazide. A decrease in anisotropy can be attributed to a particular hydrazone product, avoiding the additional step of product identification e.g. by HRMS, and, combines the equilibration step for hydrazone formation with 14-3-3η screening (Fig. 2a). […] To confirm the single-concentration results, a competition assay was performed (Fig. 2b). hDMX361–369^pSer367Gly-hydrazide was equilibrated with 5 equivalents of each aldehyde (product formation confirmed by LC-MS, see Fig. S4, ESI ^†), and serially diluted against the tracer peptide (hDMX361–374^pSer367*) and 14-3-3η protein.
Fig. 2 Dynamic ligation screening based on hDMX361–369^pSer367Gly-hydrazide (a) Anisotropy values of individually screened hydrazones (relative to buffer, zero activity negative control in grey), hDMX361–374^pSer367 (blue) and hDMX361–369^pSer367Gly-hydrazide (red) as positive controls with hits (hDMX361–369^pSer367Gly-hydrazone-FC45 and hDMX361–369^pSer367Gly-hydrazone-SIG17) highlighted in orange boxes (10 μM acetylated hydrazide peptide mixed with 5 eq. of aldehyde, 1 μM 14-3-3η, 50 nM hDMX361–374^pSer367*, 50 mM NH4OAc, 10 mM aniline and 1 mM DTT) (b) competition FA curves for hydrazones taken forward as hits (50 nM hDMX361–374^pSer367*, 1 μM 14-3-3η in 50 mM NH4OAc, 10 mM aniline and 1 mM DTT).
Fig. 3 Dynamic ligation screening based on hDMX361–370^pSer367Gly-hydrazide (a) anisotropy values of individually screened hydrazones (relative to buffer, zero activity negative control in grey), hDMX361–374^pSer367 (blue) and hDMX361–370^pSer367Gly-hydrazide (red) as positive controls with hits highlighted in black boxes (10 μM acetylated hydrazide peptide mixed with 5 eq. of aldehyde, 1 μM 14-3-3η, 50 nM hDMX361–374^pSer367*, 50 mM NH4OAc, 10 mM aniline and 1 mM DTT) (b) representative competition FA curves for hydrazones taken forwards as hits (50 nM hDMX361–374^pSer367*, 1 μM 14-3-3η in 50 mM NH4OAc, 10 mM aniline and 1 mM DTT). […]
Screening was performed using fluorescence anisotropy competition assay, in 50 mM NH4Ac pH 6.5 buffer containing 10 mM aniline, 1 mM DTT. […]

[1] = biological target: T2, hDMX361–370pSer367Gly* 361-370 (Homo sapiens, UniProt O15151, also: FAM-Ahx, end not given here); experiment: fluorescence anisotropy
T2 chain: {FAM-Ahx}-DCRRTI[pS]APVG

[2] = biological target: T3, hDMX361–369pSer367Gly-hydrazone-SIG17 361-369 (Homo sapiens, UniProt O15151, reading uncertain; also: printed as hDMX361–369pSer367Gly-hydrazone-SIG17 361-369); experiment: fluorescence anisotropy competition
T3 chain: DCRRTI[pS]APG-{hydrazone‑SIG17}

[3] = biological target: T4, hDMX361–374pSer367 361-374 (Homo sapiens, UniProt O15151); experiment: fluorescence anisotropy competition
T4 chain: DCRRTI[pS]APVVRPK

[4] = biological target: T5, hDMX361–369pSer367Gly-hydrazide 361-369 (Homo sapiens, UniProt O15151); experiment: fluorescence anisotropy competition
T5 chain: DCRRTI[pS]APG-hydrazide

[5] = biological target: T6, hDMX361–369pSer367Gly-hydrazone-FC45 361-369 (Homo sapiens, UniProt O15151, reading uncertain; also: printed as hDMX361–369pSer367Gly-hydrazone-FC45 361-369); experiment: fluorescence anisotropy competition
T6 chain: DCRRTI[pS]APG-{hydrazone‑FC45}

[6] = Fig. 2b experiment, hydrazide equilibrated with 5 eq. aldehyde, serially diluted, 1 μM 14-3-3η, 50 mM NH4OAc, 10 mM aniline, 1 mM DTT, pH 6.5

CC[C@H](C)[C@H](NC(=O)[C@@H](NC(=O)[C@H](CCCNC(=N)N)NC(=O)[C@H](CCCNC(=N)N)NC(=O)[C@H](CS)NC(=O)[C@H](CC(=O)O)NC(C)=O)[C@@H](C)O)C(=O)N[C@@H](COP(=O)(O)O)C(=O)N[C@@H](C)C(=O)N1CCC[C@H]1C(=O)NCC(=O)NN [hDMX361–369^pSer367Gly-hydrazide] (HELM PEPTIDE1{[ac].D.C.R.R.T.I.[O=C([C@H](COP(=O)(O)O)N[*:1])[*:2]].A.P.G.[NN[*:1]]}$$$$V2.0)
IC50 (14-3-3η; [6]): 8.2 ± 1.3 µM

CC[C@H](C)[C@H](NC(=O)[C@@H](NC(=O)[C@H](CCCNC(=N)N)NC(=O)[C@H](CCCNC(=N)N)NC(=O)[C@H](CS)NC(=O)[C@H](CC(=O)O)NC(C)=O)[C@@H](C)O)C(=O)N[C@@H](COP(=O)(O)O)C(=O)N[C@@H](C)C(=O)N1CCC[C@H]1C(=O)N[C@H](C(=O)NCC(=O)NN)C(C)C [hDMX361–370^pSer367Gly-hydrazide] (HELM PEPTIDE1{[ac].D.C.R.R.T.I.[O=C([C@H](COP(=O)(O)O)N[*:1])[*:2]].A.P.V.G.[NN[*:1]]}$$$$V2.0)
IC50 (14-3-3η; Fig. 3b experiment, 1 μM 14-3-3η in 50 mM NH4OAc, 10 mM aniline and 1 mM DTT): 8.5 ± 1.6 µM

CC[C@H](C)[C@H](NC(=O)[C@@H](NC(=O)[C@H](CCCNC(=N)N)NC(=O)[C@H](CCCNC(=N)N)NC(=O)[C@H](CS)NC(=O)[C@H](CC(=O)O)NC(C)=O)[C@@H](C)O)C(=O)N[C@@H](COP(=O)(O)O)C(=O)N[C@@H](C)C(=O)N1CCC[C@H]1C(=O)NCC(=O)N/N=C/c1cc(Br)cc([N+](=O)[O-])c1 [hDMX361–369^pSer367Gly-hydrazone-FC45] (HELM PEPTIDE1{[ac].D.C.R.R.T.I.[O=C([C@H](COP(=O)(O)O)N[*:1])[*:2]].A.P.G.[O=[N+]([O-])c1cc(Br)cc(/C=N/N[*:1])c1]}$$$$V2.0)
IC50 (14-3-3η; [6]): 10.4 ± 0.3 µM

B1: 14-3-3η (protein)
chain: GDREQLLQRARLAEQAERYDDMASAMKAVTELNEPLSNEDRNLLSVAYKNVVGARRSSWRVISSIEQKTMADGNEKKLEKVKAYREKIEKELETVCNDVLSLLDKFLIKNCNDFQYESKVFYLKMKGDYYRYLAEVASGEKKNSVVEASEAAYKEAFEISKEQMQPTHPIRLGLALNFSVFYYEIQNAPEQACLLAKQAFDDAIAELDTLNEDSYKDSTLIMQLLRDNLTLWTSDQQDEEAGEGN
Kd [1]: 0.172 µM | IC50 [2]: 13.7 µM | IC50 [3]: 8.5 µM | IC50 [4]: 8.2 µM | IC50 [5]: 10.4 µM
